Earlier results on one substance are cited in article PMC9010944.

pKd: −log10 of the molar value.

The target of this series is PDGF-BB (Homo sapiens) (UniProt P01127).
Chain of PDGF-BB (Homo sapiens) (P01127 82-190): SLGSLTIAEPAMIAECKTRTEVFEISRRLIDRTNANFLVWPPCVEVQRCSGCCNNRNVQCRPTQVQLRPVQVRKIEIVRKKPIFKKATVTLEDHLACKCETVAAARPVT

Chain of Perlecan domain III-2 (P98160 924-1324): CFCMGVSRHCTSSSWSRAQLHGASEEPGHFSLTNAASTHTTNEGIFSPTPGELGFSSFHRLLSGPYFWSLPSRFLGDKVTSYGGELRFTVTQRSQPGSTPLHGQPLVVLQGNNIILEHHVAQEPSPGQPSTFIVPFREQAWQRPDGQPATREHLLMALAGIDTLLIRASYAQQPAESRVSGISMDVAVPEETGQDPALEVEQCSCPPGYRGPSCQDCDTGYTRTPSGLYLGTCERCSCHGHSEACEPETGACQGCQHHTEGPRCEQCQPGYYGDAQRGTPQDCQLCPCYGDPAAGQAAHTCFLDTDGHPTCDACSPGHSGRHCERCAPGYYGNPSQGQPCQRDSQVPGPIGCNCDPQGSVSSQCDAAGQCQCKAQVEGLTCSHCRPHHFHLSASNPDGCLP

As usually defined, the pKd is the Kd on a negative log10 scale, so that one unit is a factor of ten. In the case of “Perlecan domain III-2 (from UniProt P98160)”, the pKd was 8.10.
